Measured values as given in PMC9989821.

How the values were obtained:
Assay in all cases: crystal structure; VP1 pentamers (His-tag cleaved) at 3-4 mg/mL, hanging drop vapor diffusion at 20°C, 10-18% PEG 3.350, 0.1 M HEPES pH 7.5, 0.1-0.3 M LiCl; self-association of VP1 into a pentamer
[1] = biological target: BK polyomavirus VP1 mutant VQQ, A72V E73Q E82Q (VP1 pentamer, residues 30-300) (BK polyomavirus) (UniProt P03088)
[2] = biological target: BK polyomavirus VP1 mutant E73Q (VP1 pentamer, residues 30-300) (BK polyomavirus) (UniProt P03088)
[3] = biological target: BK polyomavirus VP1 mutant E73A (VP1 pentamer, residues 30-300) (BK polyomavirus) (UniProt P03088)
[4] = biological target: BK polyomavirus VP1 mutant N-Q, K69N E82Q (VP1 pentamer, residues 30-300) (BK polyomavirus) (UniProt P03088)

BK polyomavirus VP1 mutant VQQ, A72V E73Q E82Q (VP1 pentamer, residues 30-300) (from UniProt P03088 30-300) (domain or fragment)
stoichiometry N [1]: 5

BK polyomavirus VP1 mutant E73Q (VP1 pentamer, residues 30-300) (from UniProt P03088 30-300) (domain or fragment)
stoichiometry N [2]: 5

BK polyomavirus VP1 mutant E73A (VP1 pentamer, residues 30-300) (from UniProt P03088 30-300) (domain or fragment)
stoichiometry N [3]: 5

BK polyomavirus VP1 mutant N-Q, K69N E82Q (VP1 pentamer, residues 30-300) (from UniProt P03088 30-300) (domain or fragment)
stoichiometry N [4]: 5
